From patent publication US20250388669A1 (published 2025)

T1: B7H3 (UniProt Q5ZPR3 29-466, limits assumed)
T1 sequence (looked up): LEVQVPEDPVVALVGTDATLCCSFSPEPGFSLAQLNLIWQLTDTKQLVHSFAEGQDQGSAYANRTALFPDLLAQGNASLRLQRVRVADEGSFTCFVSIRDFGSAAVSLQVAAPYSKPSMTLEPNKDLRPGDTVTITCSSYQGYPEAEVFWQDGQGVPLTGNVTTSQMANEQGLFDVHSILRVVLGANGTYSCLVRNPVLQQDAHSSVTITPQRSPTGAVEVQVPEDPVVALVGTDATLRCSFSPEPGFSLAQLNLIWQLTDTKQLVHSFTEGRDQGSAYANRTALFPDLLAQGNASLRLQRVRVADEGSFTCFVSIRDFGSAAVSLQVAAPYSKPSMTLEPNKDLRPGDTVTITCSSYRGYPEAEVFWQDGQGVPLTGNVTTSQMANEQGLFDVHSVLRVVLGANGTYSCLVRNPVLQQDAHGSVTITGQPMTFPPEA

B1: Ly2281 (bispecific antibody)
chain 1: QVTLKESGPALVKPTQTLTLTCTFSGFSLSTSGTCVSWIRQPPGKALEWLATICWEDSKGYNPSLKSRLTISKDTSKNQAVLTMTNMDPVDTATYYCARREDSGYFWFPYWGQGTLVTVSSASTKGPSVFPLAPSSKSTSGGTAALGCLVKDYFPEPVTVSWNSGALTSGVHTFPAVLQSSGLYSLSSVVTVPSSSLGTQTYICNVNHKPSNTKVDKKVEPKSCGGGGSGGGGSGGGGSGGGGSQVQLVQSGAEVKKPGASVKVSCKASGYTFAGFEMHWVRQAPGQGLEWMGAIDPKTGGTDYNQKFKDRVTMTRDTSISTAYMELSRLRSDDTAVYYCARDLGYFDVWGQGTLVTVSSGGGGSDKTHTCPPCPAPEAAGPSVFLFPPKPKDTLMISRTPEVTCVVVDVSHEDPEVKFNWYVDGVEVHNAKTKPREEQYNSTYRVVSVLTVLHQDWLNGKEYKCKVSNKALPAPIEKTISKAKGQPREPQVYTLPPSREEMTKNQVSLWCLVKGFYPSDIAVEWESNGQPENNYKTTPPVLDSDGSFFLYSKLTVDKSRWQQGNVFSCSVMHEALHNHYTQKSLSLSPG
chain 2: QVTLKESGPALVKPTQTLTLTCTFSGFSLSTSGTCVSWIRQPPGKALEWLATICWEDSKGYNPSLKSRLTISKDTSKNQAVLTMTNMDPVDTATYYCARREDSGYFWFPYWGQGTLVTVSSASTKGPSVFPLAPSSKSTSGGTAALGCLVKDYFPEPVTVSWNSGALTSGVHTFPAVLQSSGLYSLSSVVTVPSSSLGTQTYICNVNHKPSNTKVDKKVEPKSCGGGGSGGGGSGGGGSGGGGSDIQMTQSPSSLSASVGDRVTITCRASQDIRSNLNWYQQKPGGAVKLLIYYTSRLHSGVPSRFSGSGSGTDYTLTISSLQPEDFATYFCQQSEKLPRTFGGGTKVEIRGGGGSDKTHTCPPCPAPEAAGPSVFLFPPKPKDTLMISRTPEVTCVVVDVSHEDPEVKFNWYVDGVEVHNAKTKPREEQYNSTYRVVSVLTVLHQDWLNGKEYKCKVSNKALPAPIEKTISKAKGQPREPQVYTLPPSREEMTKNQVSLSCAVKGFYPSDIAVEWESNGQPENNYKTTPPVLDSDGSFFLVSKLTVDKSRWQQGNVFSCSVMHEALHNRFTQKSLSLSPG
light: NIQMTQSPSSLSASVGDRVTITCKAGQNVNNYLAWYQQKPGKAPKVLIFNANSLQTGVPSRFSGSGSGTDFTLTISSLQPEDFATYYCQQYNSWPTFGGGTKVEIKRTVAAPSVFIFPPSDEQLKSGTASVVCLLNNFYPREAKVQWKVDNALQSGNSQESVTEQDSKDSTYSLSSTLTLSKADYEKHKVYACEVTHQGLSSPVTKSFNRGEC
notes: PD-1 Fabs, central CD137 Fv
B2: Ly2118 (other)
chain 1: QVQLVQSGAEVKKPGASVKVSCKASGYTFTSYVMHWVRQKPGQGLEWIGYINPYNEGTESTDKFKGRATMTSDKSTSTVYMELSSLRSEDTAVYYCASIYYGYEGTYFGVWGQGTLVTVSSASTKGPSVFPLAPSSKSTSGGTAALGCLVKDYFPEPVTVSWNSGALTSGVHTFPAVLQSSGLYSLSSVVTVPSSSLGTQTYICNVNHKPSNTKVDKKVEPKSCGGGGSGGGGSGGGGSGGGGSQVQLVQSGAEVKKPGASVKVSCKASGYTFAGFEMHWVRQAPGQGLEWMGAIDPKTGGTDYNQKFKDRVTMTRDTSISTAYMELSRLRSDDTAVYYCARDLGYFDVWGQGTLVTVSSGGGGSDKTHTCPPCPAPEAAGPSVFLFPPKPKDTLMISRTPEVTCVVVDVSHEDPEVKFNWYVDGVEVHNAKTKPREEQYNSTYRVVSVLTVLHQDWLNGKEYKCKVSNKALPAPIEKTISKAKGQPREPQVYTLPPSREEMTKNQVSLWCLVKGFYPSDIAVEWESNGQPENNYKTTPPVLDSDGSFFLYSKLTVDKSRWQQGNVFSCSVMHEALHNHYTQKSLSLSPGGGGGSGGGGSGGGGSGGGGSQVTLKESGPALVKPTQTLTLTCTFSGFSLSTSGTCVSWIRQPPGKALEWLATICWEDSKGYNPSLKSRLTISKDTSKNQAVLTMTNMDPVDTATYYCARREDSGYFWFPYWGQGTLVTVSS
chain 2: QVQLVQSGAEVKKPGASVKVSCKASGYTFTSYVMHWVRQKPGQGLEWIGYINPYNEGTESTDKFKGRATMTSDKSTSTVYMELSSLRSEDTAVYYCASIYYGYEGTYFGVWGQGTLVTVSSASTKGPSVFPLAPSSKSTSGGTAALGCLVKDYFPEPVTVSWNSGALTSGVHTFPAVLQSSGLYSLSSVVTVPSSSLGTQTYICNVNHKPSNTKVDKKVEPKSCGGGGSGGGGSGGGGSGGGGSDIQMTQSPSSLSASVGDRVTITCRASQDIRSNLNWYQQKPGGAVKLLIYYTSRLHSGVPSRFSGSGSGTDYTLTISSLQPEDFATYFCQQSEKLPRTFGGGTKVEIRGGGGSDKTHTCPPCPAPEAAGPSVFLFPPKPKDTLMISRTPEVTCVVVDVSHEDPEVKFNWYVDGVEVHNAKTKPREEQYNSTYRVVSVLTVLHQDWLNGKEYKCKVSNKALPAPIEKTISKAKGQPREPQVYTLPPSREEMTKNQVSLSCAVKGFYPSDIAVEWESNGQPENNYKTTPPVLDSDGSFFLVSKLTVDKSRWQQGNVFSCSVMHEALHNRFTQKSLSLSPGGGGGSGGGGSGGGGSGGGGSNIQMTQSPSSLSASVGDRVTITCKAGQNVNNYLAWYQQKPGKAPKVLIFNANSLQTGVPSRFSGSGSGTDFTLTISSLQPEDFATYYCQQYNSWPTFGGGTKVEIK
light: EIVLTQSPATLSLSPGERATLSCRASSSVSYMHWYQQKPGQAPRPWIYATSNLASGIPARFSGSRSGTDYTLTISSLEPEDFAVYYCQQWSSNTLTFGGGTKVEIKRTVAAPSVFIFPPSDEQLKSGTASVVCLLNNFYPREAKVQWKVDNALQSGNSQESVTEQDSKDSTYSLSSTLTLSKADYEKHKVYACEVTHQGLSSPVTKSFNRGEC
notes: Tri-specific antibody: B7H3 Fabs, central CD137 Fv, terminal PD-1 Fv
B3: Ly2434 (bispecific antibody, human IgG1, kappa)
heavy 1: QVQLVQSGAEVKKPGASVKVSCKASGYTFTSYVMHWVRQKPGQGLEWIGYINPYNEGTESTDKFKGRATMTSDKSTSTVYMELSSLRSEDTAVYYCASIYYGYEGTYFGVWGQGTLVTVSSASTKGPSVFPLAPSSKSTSGGTAALGCLVKDYFPEPVTVSWNSGALTSGVHTFPAVLQSSGLYSLSSVVTVPSSSLGTQTYICNVNHKPSNTKVDKKVEPKSCDKTHTCPPCPAPEAAGPSVFLFPPKPKDTLMISRTPEVTCVVVDVSHEDPEVKFNWYVDGVEVHNAKTKPREEQYNSTYRVVSVLTVLHQDWLNGKEYKCKVSNKALPAPIEKTISKAKGQPREPQVYTLPPSREEMTKNQVSLWCLVKGFYPSDIAVEWESNGQPENNYKTTPPVLDSDGSFFLYSKLTVDKSRWQQGNVFSCSVMHEALHNHYTQKSLSLSPGGGGGSGGGGSGGGGSGGGGSEVQLVESGGGLVQPGGSLRLSCAASGFTFTNYGLHWVRQAPGKGLEWVSSISPSGGVTYYRDSVKGRFTISRDNSKNTLYLQMNSLRAEDTAVYYCAKPFLGWGGANWIAHWGQGTLVTVSS
heavy 2: QVQLVQSGAEVKKPGASVKVSCKASGYTFTSYVMHWVRQKPGQGLEWIGYINPYNEGTESTDKFKGRATMTSDKSTSTVYMELSSLRSEDTAVYYCASIYYGYEGTYFGVWGQGTLVTVSSASTKGPSVFPLAPSSKSTSGGTAALGCLVKDYFPEPVTVSWNSGALTSGVHTFPAVLQSSGLYSLSSVVTVPSSSLGTQTYICNVNHKPSNTKVDKKVEPKSCDKTHTCPPCPAPEAAGPSVFLFPPKPKDTLMISRTPEVTCVVVDVSHEDPEVKFNWYVDGVEVHNAKTKPREEQYNSTYRVVSVLTVLHQDWLNGKEYKCKVSNKALPAPIEKTISKAKGQPREPQVYTLPPSREEMTKNQVSLSCAVKGFYPSDIAVEWESNGQPENNYKTTPPVLDSDGSFFLVSKLTVDKSRWQQGNVFSCSVMHEALHNRFTQKSLSLSPGGGGGSGGGGSGGGGSGGGGSDIQMTQSPSSLSASVGDRVTITCLASEDISNDLAWYQQKPGKAPKLLIYFVDRLLDGVPSRFSGSGSGTDFTLTISSLQPEDFATYYCQQSYKYPPTFGQGTKLEIK
light: B2 light
notes: B7H3 Fabs x terminal CD40 Fv (TM559)
B4: Ly2279 (bispecific antibody)
chain 1: not shown
chain 2: QVQLVQSGAEVKKPGASVKVSCKASGYTFTSYVMHWVRQKPGQGLEWIGYINPYNEGTESTDKFKGRATMTSDKSTSTVYMELSSLRSEDTAVYYCASIYYGYEGTYFGVWGQGTLVTVSSASTKGPSVFPLAPSSKSTSGGTAALGCLVKDYFPEPVTVSWNSGALTSGVHTFPAVLQSSGLYSLSSVVTVPSSSLGTQTYICNVNHKPSNTKVDKKVEPKSCGGGGSGGGGSGGGGSGGGGSDIQMTQSPSSVSASVGDRVTITCRASQGIYSWLAWYQQKPGKAPNLLIYTASTLQSGVPSRFSGSGSGTDFTLTISSLQPEDFATYYCQQANIFPLTFGGGTKVEIKGGGGSDKTHTCPPCPAPEAAGPSVFLFPPKPKDTLMISRTPEVTCVVVDVSHEDPEVKFNWYVDGVEVHNAKTKPREEQYNSTYRVVSVLTVLHQDWLNGKEYKCKVSNKALPAPIEKTISKAKGQPREPQVYTLPPSREEMTKNQVSLSCAVKGFYPSDIAVEWESNGQPENNYKTTPPVLDSDGSFFLVSKLTVDKSRWQQGNVFSCSVMHEALHNRFTQKSLSLSPG
light: B2 light
notes: B7H3 Fabs, central CD40 Fv
B5: TM383 (antibody, V domains shown)
VH: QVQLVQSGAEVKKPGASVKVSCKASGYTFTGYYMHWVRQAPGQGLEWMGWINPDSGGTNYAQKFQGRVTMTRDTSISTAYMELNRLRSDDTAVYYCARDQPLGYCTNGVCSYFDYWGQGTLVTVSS
VL: DIQMTQSPSSVSASVGDRVTITCRASQGIYSWLAWYQQKPGKAPNLLIYTASTLQSGVPSRFSGSGSGTDFTLTISSLQPEDFATYYCQQANIFPLTFGGGTKVEIK
notes: Parent mAb; also called Anti-CD40 TM383; parent CD40 mAb
B6: Ly1630 (antibody, V domains shown)
VH: QVQLVQSGAEVKKPGASVKVSCKASGYTFAGFEMHWVRQAPGQGLEWMGAIDPKTGGTDYNQKFKDRVTMTRDTSISTAYMELSRLRSDDTAVYYCARDLGYFDVWGQGTLVTVSS
VL: DIQMTQSPSSLSASVGDRVTITCRASQDIRSNLNWYQQKPGGAVKLLIYYTSRLHSGVPSRFSGSGSGTDYTLTISSLQPEDFATYFCQQSEKLPRTFGGGTKVEIR
notes: Parent mAb; also called Anti-CD137 Ly1630; parent anti-CD137 mAb

Columns and labels:
CD137 = target: T2, CD137 (human, UniProt Q07011 24-186); test: CD137 binding (method not given)
T2 construct: In the reporter assay it is whole, on GS-H2-huCD137 cells; also called 4-1BB; huCD137

B7H3 = target: T1, B7H3; test: FCM or ELISA, graded
CD40 [1] = target: CD40 (UniProt P25942 21-193, limits assumed); test: FCM or ELISA, graded
CD40 [2] = target: T3, CD40 (human, UniProt P25942 21-193); test: CD40 binding (method not given)
T3 construct: In the reporter assay it is whole, on GS-H2-huCD40 cells; also called huCD40
T3 sequence (P25942 21-193 limits assumed): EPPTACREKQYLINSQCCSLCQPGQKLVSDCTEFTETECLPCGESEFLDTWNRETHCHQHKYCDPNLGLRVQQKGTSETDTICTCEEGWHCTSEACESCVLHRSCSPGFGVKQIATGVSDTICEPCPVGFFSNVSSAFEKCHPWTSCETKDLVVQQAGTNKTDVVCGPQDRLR

Sequence of CD40 (UniProt P25942 21-193, limits assumed) (P25942 21-193 limits assumed): as above

Binder	EC50 (CD137) [µg/mL]	EC50 (CD40 [2]) [µg/mL]	further results
B1	2.56		
B2	1.78		
B3			binding result (B7H3): binds; binding result (CD40 [1]): binds
B4		1.49	
B5		0.48	
B6	0.08		
